Experimental data: patent US10941182 (Amgen, dated 2021)
One block for each binder: values may come before it. Starred links: 1 amine or outer side, 2 acyl side, 3 side chain; linkers in the order of their positions; H or OH if unused. Non-standard residues stand in square brackets, D forms with d. Primed or numbered codes have the meaning given here. *: point of attachment. AC4Abu = α-carboxy-4-aminobutyric acid, O=C(C(CCN[*:1])C(=O)[*:3])[*:2]; Oic = O=C(O)[C@@H]1C[C@@H]2CCCC[C@@H]2N1; Phe(4-Cl) = N[C@@H](Cc1ccc(Cl)cc1)C(=O)O; γGlu = O=C(O)[C@H](CCC(=O)[*:2])N[*:1]; d(β3hF) = N[C@@H](CC(=O)O)Cc1ccccc1; NMeR = CN[C@@H](CCCNC(=N)N)C(=O)O; Palmitoyl = CCCCCCCCCCCCCCCC(=O)*; Tridecanoyl = CCCCCCCCCCCCC(=O)*; hArg = N=C(N)NCCCC[C@H](N)C(=O)O; Cha = N[C@@H](CC1CCCCC1)C(=O)O; αMeP = C[C@@]1(C(=O)O)CCCN1; AC4Abu″ = not defined here; β3hP = O=C(O)C[C@@H]1CCCN1; αMeS = C[C@](N)(CO)C(=O)O; Nle = CCCC[C@H](N)C(=O)O; AMEF = not defined here; Deg = CCC(N)(CC)C(=O)O; AEEA = NCCOCCOCC(=O)O; Aib = CC(C)(N)C(=O)O

What was measured:
Experiment in all cases: cell-based or functional assay
rat APJ receptor [1] = biological target: T1, rat APJ receptor (rat, UniProt Q9JHG3 1-377)
T1 sequence (looked up): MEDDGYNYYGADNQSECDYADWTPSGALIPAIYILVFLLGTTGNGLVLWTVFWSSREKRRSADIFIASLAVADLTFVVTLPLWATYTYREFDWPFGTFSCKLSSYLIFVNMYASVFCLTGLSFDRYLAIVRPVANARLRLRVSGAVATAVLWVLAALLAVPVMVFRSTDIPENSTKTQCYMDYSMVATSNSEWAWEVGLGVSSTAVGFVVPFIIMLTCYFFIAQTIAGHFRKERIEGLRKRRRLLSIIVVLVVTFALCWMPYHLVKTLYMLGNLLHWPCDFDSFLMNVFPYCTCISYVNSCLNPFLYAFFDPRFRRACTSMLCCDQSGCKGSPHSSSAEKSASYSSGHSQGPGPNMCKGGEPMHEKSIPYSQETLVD

human APJ receptor [2] = biological target: T2, human APJ receptor (human, UniProt P35414 1-380)
T2 sequence (looked up): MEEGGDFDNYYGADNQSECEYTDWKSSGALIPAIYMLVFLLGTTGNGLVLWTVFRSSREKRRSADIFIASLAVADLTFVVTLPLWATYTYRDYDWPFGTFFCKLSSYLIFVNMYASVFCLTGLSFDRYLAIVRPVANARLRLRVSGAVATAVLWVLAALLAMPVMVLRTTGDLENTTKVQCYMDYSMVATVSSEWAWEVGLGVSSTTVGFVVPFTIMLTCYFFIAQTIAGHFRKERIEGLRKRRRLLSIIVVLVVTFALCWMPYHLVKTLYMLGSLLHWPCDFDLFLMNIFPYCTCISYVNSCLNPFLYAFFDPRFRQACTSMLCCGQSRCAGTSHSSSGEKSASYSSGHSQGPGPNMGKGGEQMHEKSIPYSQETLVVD

rat APJ receptor [3] = biological target: T3, rat APJ receptor (rat, UniProt Q9JHG3 1-377); remark: listed apart in the source
T3 sequence (looked up): T1 sequence (looked up)

human APJ receptor [4] = biological target: T4, human APJ receptor (human, UniProt P35414 1-380); remark: listed apart in the source
T4 sequence (looked up): T2 sequence (looked up)

EC50 Rat APJ Receptor (GTPγS assay) (rat APJ receptor [1]): 4.01 nM
EC50 Human APJ Receptor (GTPγS assay) (human APJ receptor [2]): 3.92 nM
B1: Apelin polypeptide SEQ ID NO: 415 (peptide)
peptide: Tridecanoyl-[AC4Abu][AEEA][AEEA]QRP[NMeR][Cha]SHKG[Deg][Nle]P[Phe(4-Cl)]-OH
SMILES: CCCCCCCCCCCCC(=O)NCCC(C(=O)O)C(=O)NCCOCCOCC(=O)NCCOCCOCC(=O)N[C@@H](CCC(N)=O)C(=O)N[C@@H](CCCNC(=N)N)C(=O)N1CCC[C@H]1C(=O)N(C)[C@@H](CCCNC(=N)N)C(=O)N[C@@H](CC1CCCCC1)C(=O)N[C@@H](CO)C(=O)N[C@@H](Cc1c[nH]cn1)C(=O)N[C@@H](CCCCN)C(=O)NCC(=O)NC(CC)(CC)C(=O)N[C@@H](CCCC)C(=O)N1CCC[C@H]1C(=O)N[C@@H](Cc1ccc(Cl)cc1)C(=O)O

EC50 Rat APJ Receptor (rat APJ receptor [3]): 4.48 nM
EC50 Human APJ Receptor (human APJ receptor [4]): 0.224 nM
B2: SEQ ID NO: 60 (peptide)
peptide: Ac-[hArg]Q[hArg]P[NMeR][Cha]SHKG[Oic][Nle]P[Phe(4-Cl)]-OH

EC50 Rat APJ Receptor (GTPγS assay) (rat APJ receptor [1]): 0.138 nM
EC50 Human APJ Receptor (GTPγS assay) (human APJ receptor [2]): 0.0299 nM
B3: Apelin polypeptide SEQ ID NO: 498 (peptide)
peptide: Tridecanoyl-[γGlu][AEEA][AEEA][dQ]RP[NMeR][Cha]SHKG[αMeP][Nle][Aib][Phe(4-Cl)]-OH
SMILES: CCCCCCCCCCCCC(=O)N[C@@H](CCC(=O)NCCOCCOCC(=O)NCCOCCOCC(=O)N[C@H](CCC(N)=O)C(=O)N[C@@H](CCCNC(=N)N)C(=O)N1CCC[C@H]1C(=O)N(C)[C@@H](CCCNC(=N)N)C(=O)N[C@@H](CC1CCCCC1)C(=O)N[C@@H](CO)C(=O)N[C@@H](Cc1c[nH]cn1)C(=O)N[C@@H](CCCCN)C(=O)NCC(=O)N1CCC[C@@]1(C)C(=O)N[C@@H](CCCC)C(=O)NC(C)(C)C(=O)N[C@@H](Cc1ccc(Cl)cc1)C(=O)O)C(=O)O

EC50 Human APJ Receptor (human APJ receptor [4]): 0.0221 nM
B4: SEQ ID NO: 494 (peptide)
peptide: XXXQRPRLSHKGPXPF
modifications: {Decanoyl}[AC4Abu][Aeea][Aeea]QRP[NMeArg]LSHKGP[Nle]P[4-Cl-F]{COOH}

EC50 Rat APJ Receptor (GTPγS assay) (rat APJ receptor [1]): 0.447 nM
EC50 Human APJ Receptor (GTPγS assay) (human APJ receptor [2]): 0.388 nM
B5: Apelin polypeptide SEQ ID NO: 377 (peptide)
peptide: Tridecanoyl-[γGlu][AEEA][AEEA][dQ]RP[NMeR][Cha]SHKG[Oic][Nle]P[Phe(4-Cl)]-OH
SMILES: CCCCCCCCCCCCC(=O)N[C@@H](CCC(=O)NCCOCCOCC(=O)NCCOCCOCC(=O)N[C@H](CCC(N)=O)C(=O)N[C@@H](CCCNC(=N)N)C(=O)N1CCC[C@H]1C(=O)N(C)[C@@H](CCCNC(=N)N)C(=O)N[C@@H](CC1CCCCC1)C(=O)N[C@@H](CO)C(=O)N[C@@H](Cc1c[nH]cn1)C(=O)N[C@@H](CCCCN)C(=O)NCC(=O)N1[C@H](C(=O)N[C@@H](CCCC)C(=O)N2CCC[C@H]2C(=O)N[C@@H](Cc2ccc(Cl)cc2)C(=O)O)C[C@@H]2CCCC[C@@H]21)C(=O)O

EC50 Rat APJ Receptor (GTPγS assay) (rat APJ receptor [1]): 3.79 nM
EC50 Human APJ Receptor (GTPγS assay) (human APJ receptor [2]): 3.39 nM
B6: Apelin polypeptide SEQ ID NO: 414 (peptide)
peptide: Tridecanoyl-[AC4Abu][AEEA][AEEA]QRP[NMeR][Cha]SHKG[Aib][Nle]P[Phe(4-Cl)]-OH
SMILES: CCCCCCCCCCCCC(=O)NCCC(C(=O)O)C(=O)NCCOCCOCC(=O)NCCOCCOCC(=O)N[C@@H](CCC(N)=O)C(=O)N[C@@H](CCCNC(=N)N)C(=O)N1CCC[C@H]1C(=O)N(C)[C@@H](CCCNC(=N)N)C(=O)N[C@@H](CC1CCCCC1)C(=O)N[C@@H](CO)C(=O)N[C@@H](Cc1c[nH]cn1)C(=O)N[C@@H](CCCCN)C(=O)NCC(=O)NC(C)(C)C(=O)N[C@@H](CCCC)C(=O)N1CCC[C@H]1C(=O)N[C@@H](Cc1ccc(Cl)cc1)C(=O)O

EC50 Human APJ Receptor (human APJ receptor [4]): 0.307 nM
B7: SEQ ID NO: 606 (peptide)
peptide: Palmitoyl-[AC4Abu″][AEEA][AEEA][dQ]RP[NMeR][Cha]SHKG[Oic][Nle]P[AMEF]-OH
modifications: reading uncertain

EC50 Human APJ Receptor (human APJ receptor [4]): 0.332 nM
B8: SEQ ID NO: 642 (peptide)
peptide: Palmitoyl-[AC4Abu″][AEEA][AEEA][dQ]RP[NMeR][Cha][αMeS]HKG[Oic][Nle][β3hP][d(β3hF)]-OH
modifications: reading uncertain
